Measurements taken from patent US11814447B2, “Peptide ligands for binding to EphA2” (BICYCLERD LIMITED, priority 2018, dated 2023).
Like-named read-outs stand apart in the source and are kept apart here. Starred links: 1 amine or outer side, 2 acyl side, 3 side chain; linkers in the order of their positions; H or OH if unused. Positions of bridges follow the written chain, without caps; N, C: chain ends. Non-standard residues stand in square brackets, D forms with d. Primed or numbered codes have the meaning given here. No end group written: not given here. TBMB′ = 1,3,5-tris(bromomethyl)benzene, 1,3,5-tris(methylene)benzene core, three thioethers to Cys; TATA = O=C(CC[*:1])N1CN(C(=O)CC[*:2])CN(C(=O)CC[*:3])C1; TBMB = c1c(C[*:1])cc(C[*:3])cc1C[*:2]; AF488 = AlexaFluor488; Sar = CNCC(=O)O

Key:
Human EphA2 = target: T1, Human EphA2 (Homo sapiens, UniProt P29317); test: Fluorescence polarisation competition binding assay
T1 construct: EphA2 (Ecto); polyHis (C)
Description: 1. Fluorescence Polarisation Measurements
(b) Competition Binding Assay
Peptides without a fluorescent tag were tested in competition with a peptide with a fluorescent tag and a known Kd (Table 2). Peptides were diluted to an appropriate concentration in assay buffer as described in the direct binding assay with a maximum of 5% DMSO, then serially diluted 1 in 2. […] Measurements were conducted as for the direct binding assay, however the gain was determined prior to the first measurement. Data analysis was in Systat Sigmaplot version 12.0 where the mP values were fit to a user defined cubic equation to generate a Ki value: f=y min+(y max−y min)/Lig*((Lig*((2*((Klig+Kcomp+Lig+Comp−Prot*c)^2−3*(Kcomp*(Lig−Prot*c)+Klig*(Comp−Prot*c)+Klig*Kcomp))^0.5*COS(ARCCOS((−2*(Klig+Kcomp+Lig+Comp−Prot*c)^3+9*(Klig+Kcomp+Lig+Comp−Prot*c)*(Kcomp*(Lig−Prot*c)+Klig*(Comp−Prot*c)+Klig*Kcomp)−27*(−1*Klig*Kcomp*Prot*c))/(2*(4(Klig+Kcomp+Lig+Comp−Prot*c)^2−3*(Kcomp*(Lig−Prot*c)+Klig*(Comp−Prot*c)+Klig*Kcomp))^3)^0.5)))/3))−(Klig+Kcomp+Lig+Comp−Prot*c)))/((3*Klig)+42*((Klig+Kcomp+Lig+Comp−Prot*c)^2−3*(Kcomp*(Lig−Prot*c)+Klig*(Comp−Prot*c)+Klig*Kcomp))^0.5*COS(ARCCOS((−2*(Klig+Kcomp+Lig+Comp−Prot*c)^3+9*(Klig+Kcomp+Lig+Comp−Prot*c)*(Kcomp*(Lig−Prot*c)+Klig*(Comp−Prot*c)+Klig*Kcomp)−27*(−1*Klig*Kcomp*Prot*c))/(2*(4(Klig+Kcomp+Lig+Comp−Prot*c)^2−3*(Kcomp*(Lig−Prot*c)+Klig*(Comp−Prot*c)+Klig*Kcomp))^3)^0.5)))/3))−(Klig+Kcomp+Lig+Comp−Prot*c)))).
“Lig”, “KLig” and “Prot” were all defined values relating to: fluorescent peptide concentration, the Kd of the fluorescent peptide and EphA2 concentration respectively.

Human EphA2 (Ecto) [1] = target: T2, Human EphA2 (Ecto) (Human, UniProt P29317 24-537); test: FP competition, tracer Compound 18
T2 construct: extracellular domain
Description: (§1) Peptides without a fluorescent tag were tested in competition with a peptide with a fluorescent tag and a known Kd (Table 2). Peptides were diluted to an appropriate concentration in assay buffer as described in the direct binding assay with a maximum of 5% DMSO, then serially diluted 1 in 2. […] Measurements were conducted as for the direct binding assay, however the gain was determined prior to the first measurement. Data analysis was in Systat Sigmaplot version 12.0 where the mP values were fit to a user defined cubic equation to generate a Ki value: […]
T2 sequence (P29317 24-537): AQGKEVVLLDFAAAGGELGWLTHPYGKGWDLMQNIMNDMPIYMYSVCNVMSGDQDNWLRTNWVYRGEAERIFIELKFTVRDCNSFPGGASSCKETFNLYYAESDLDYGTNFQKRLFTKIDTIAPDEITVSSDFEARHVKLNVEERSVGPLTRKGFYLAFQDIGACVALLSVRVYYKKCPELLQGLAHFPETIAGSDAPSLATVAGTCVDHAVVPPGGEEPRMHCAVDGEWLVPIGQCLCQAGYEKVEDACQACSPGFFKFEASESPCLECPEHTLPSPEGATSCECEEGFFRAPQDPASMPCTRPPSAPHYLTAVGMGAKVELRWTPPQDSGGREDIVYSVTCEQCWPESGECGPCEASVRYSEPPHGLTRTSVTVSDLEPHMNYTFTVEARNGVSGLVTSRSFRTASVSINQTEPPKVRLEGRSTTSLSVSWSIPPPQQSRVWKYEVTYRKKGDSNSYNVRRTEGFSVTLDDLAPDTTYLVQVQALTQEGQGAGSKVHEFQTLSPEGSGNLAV

Human EphA2 (Ecto) [2] = target: T2, Human EphA2 (Ecto); test: FP competition, tracer Compound 66
Human EphA2 (Ecto) [3] = target: T3, Human EphA2 (Ecto) (Human, UniProt P29317 24-537); test: FP competition; tracer Reference Compound A
T3 construct: extracellular domain; in-house)
Description: as §1
T3 sequence (P29317 24-537): as above

Human EphA2 (Ecto) [4] = target: T3, Human EphA2 (Ecto); test: FP competition; tracer Reference Compound B
Description: as §1

Human EphA2 (Ecto) [5] = target: T3, Human EphA2 (Ecto); test: FP competition; tracer Reference Compound C
Outline: (§2)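 Unlabelled peptides competed against a fluorescently tagged peptide of known Kd. Peptides were diluted in direct-binding assay buffer (≤5% DMSO) and serially diluted 1 in 2. Read as in the direct binding assay, with gain set before the first read; mP values fit to a cubic equation to give Ki.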

Mouse EphA2 (Ecto) = target: T4, Mouse EphA2 (Ecto) (Mouse, UniProt Q03145 26-538); test: FP competition; tracer Reference Compound C
T4 construct: extracellular domain; C-terminal polyHis; not shown: Fc fusion or C-terminal polyHis
Outline: as §2

[6] = target: T5, Human EphA2 (Ecto), C-terminal polyHis (Human, UniProt P29317 24-537); test: fluorescence polarisation, direct binding
T5 construct: extracellular domain; also called EPH receptor A2; ephrin type-A receptor 2
Description: Biological Data 1. […] The gain used for analysis was determined for each tracer at the end of the 60 minutes where there was no protein in the well. Data was analysed using Systat Sigmaplot version 12.0. mP values were fit to a user defined quadratic equation to generate a Kd value: f=y min+(y max−y min)/Lig*((x+Lig+Kd)/2−sqrt((((x+Lig+Kd)/2)^2)−(Lig*x))). "Lig" was a defined value of the concentration of tracer used.

[7] = target: T5, Human EphA2 (Ecto), C-terminal polyHis; test: fluorescence polarisation competition; competitor fluorescent Compound 12
Description: as §1

[8] = target: T5, Human EphA2 (Ecto), C-terminal polyHis; test: fluorescence polarisation competition; competitor fluorescent Compound 66
Description: as §1

Human EphA2 (Ecto) [9] = target: T2, Human EphA2 (Ecto); test: FP competition, tracer Compound 18; remark: listed apart in the source
Description: as §1

[10] = read-out: Ki, nM ± 95% CI Human EphA2 Fluorescent peptide Compound 18, Table 9, Ala scan peptides
[11] = read-out: Ki, nM ± 95% CI, Human EphA2, competition binding assay, fluorescent peptide Compound 18, TBMB scaffold reference peptides

T5 sequence (P29317 24-537): as above
T1 sequence (P29317 24-537 limits assumed): as the sequence (P29317 24-537) above
T4 sequence (Q03145 26-538): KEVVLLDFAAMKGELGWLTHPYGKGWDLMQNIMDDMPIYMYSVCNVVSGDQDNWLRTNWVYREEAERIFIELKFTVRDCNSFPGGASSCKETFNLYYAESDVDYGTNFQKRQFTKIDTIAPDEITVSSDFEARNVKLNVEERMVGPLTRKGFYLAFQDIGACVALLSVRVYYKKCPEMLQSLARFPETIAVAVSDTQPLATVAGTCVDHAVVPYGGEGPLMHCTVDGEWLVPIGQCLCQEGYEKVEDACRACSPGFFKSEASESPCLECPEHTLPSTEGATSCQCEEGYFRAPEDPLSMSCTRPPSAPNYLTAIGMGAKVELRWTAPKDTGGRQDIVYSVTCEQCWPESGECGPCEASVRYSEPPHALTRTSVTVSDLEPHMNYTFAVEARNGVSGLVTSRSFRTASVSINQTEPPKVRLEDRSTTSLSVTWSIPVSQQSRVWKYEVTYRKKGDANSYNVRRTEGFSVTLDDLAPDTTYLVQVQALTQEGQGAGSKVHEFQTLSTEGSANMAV

Molecule	Ki (Human EphA2 (Ecto) [1])	Ki (Human EphA2 (Ecto) [5])	Ki (Mouse EphA2 (Ecto))	further results
ADVHCPWGPFWC[dA]VNRPGCA (cysteine pairing not given here) [Compound 154]	–	–	–	Ki (Human EphA2; [10]): 101 nM; Ki (Human EphA2; [11]): 101 nM
ADVHCPWGPFWCPV[dA]RPGCA (cysteine pairing not given here) [Compound 155]	–	–	–	Ki (Human EphA2; [10]): 2 nM; Ki (Human EphA2; [11]): 2 nM
[Sar][Sar]ACPWGPFWCPVNRP[dA]C (linker 4-11-18 via TBMB) [Bicycle Compound 112]	89 nM	–	–	Ki (Human EphA2 (Ecto) [2]): 110 nM
ACYVGKECAYMNVCA (linker 2-8-14 via TATA) [Bicycle Compound Number 29 (TATA scaffold), ACYVGKECAYMNVCA]	–	210 nM	–	Ki (Human EphA2 (Ecto) [3]): 87.7 nM; Ki (Human EphA2 (Ecto) [4]): 107 nM
XXXXXXXXXXXARDCPLVNPLCLHPGWTC (N-terminal (β-Ala)-Sar10; 3 Cys thioether-linked to TATA scaffold) [Bicycle Compound Number 66 (BCY6099) (TATA scaffold), (β-Ala)-Sar10-ARDCPLVNPLCLHPGWTC]	–	4.94 nM	57.6 nM	–
ACPLVNPLCLHPGWTCLHG (linker 2-9-16 via TATA) [Bicycle Compound Number 73 (TATA scaffold), ACPLVNPLCLHPGWTCLHG]	–	–	7.27 nM	–
[Sar][Sar]ACPWGAFWCPVNRPGC (linker 4-11-18 via TBMB) [Bicycle Compound 289]	> 1000 nM	–	–	Ki (Human EphA2 (Ecto) [2]): 1100 nM
ACSPTPACAVQNLCA (linker 2-8-14 via TATA) [Bicycle Compound Number 31 (TATA scaffold), ACSPTPACAVQNLCA]	–	223 nM	–	Ki (Human EphA2 (Ecto) [4]): 177 nM
[Sar][Sar]ACPWGPFWCPVNR[dA]GC (linker 4-11-18 via TBMB) [Bicycle Compound 105]	677 nM	–	–	Ki (Human EphA2 (Ecto) [2]): 471 nM
[Sar][Sar]ACPWGPAWCPVNRPGC (linker 4-11-18 via TBMB) [Bicycle Compound 83]	199 nM	–	–	Ki (Human EphA2 (Ecto) [2]): 288 nM
AF488-G[Sar][Sar][Sar][Sar][Sar][Sar][Sar][Sar][Sar][Sar]ACMNDWLCSLGWTC (linker 13-19-25 via TBMB) [Bicycle Compound Number 2 (TBMB scaffold)]	–	–	–	Kd [6]: 326 nM
ACTTGSIWCALQFEPCA (linker 2-9-16 via TBMB (inferred), also called Compound 64) [Bicycle Compound Number 64 (TBMB scaffold)]	–	–	–	Ki [7]: 410 nM; Ki [8]: 63.4 nM
ADVHCPWAPFWCPVNRPGCA (linker 5-12-19 via TBMB) [Bicycle Compound 151]	394 nM	–	–	Ki (Human EphA2 (Ecto) [9]): 394 nM
ADVHCPWGPFWCPVN[dA]PGCA (linker 5-12-19 via TBMB) [Bicycle Compound 156]	14.9 nM	–	–	Ki (Human EphA2 (Ecto) [9]): 14.9 nM
ADVHCPWGAFWCPVNRPGCA (linker 5-12-19 via TBMB) [Bicycle Compound 152]	1.8 nM	–	–	Ki (Human EphA2 (Ecto) [9]): 1.8 nM
ADVHCPWGPFWCPV[dA]RPGCA (linker 5-12-19 via TBMB) [Bicycle Compound 155]	2 nM	–	–	Ki (Human EphA2 (Ecto) [9]): 2 nM
ACPLVNPLCLHPGWSCRGQ (linker 2-9-16 via TATA) [Bicycle Compound Number 87 (BCY6026) (TATA scaffold), ACPLVNPLCLHPGWSCRGQ]	–	2.57 nM	18.6 nM	–

Molecule	Ki (Human EphA2 (Ecto) [1])	Ki (Human EphA2 (Ecto) [5])	Ki (Mouse EphA2 (Ecto))	further results
ARDCPLVNPLCLHPGWTCA (linker 4-11-18 via TATA) [Bicycle Compound Number 65 (TATA scaffold), ARDCPLVNPLCLHPGWTCA]	–	6.05 nM	39.1 nM	–
XXXXXXXXXXXACPLVNPLCLHPGWTCLHG (X1 = β-Ala; X at 2-11 = Sar; H29 = D-His; 3 Cys thioether-linked to TATA scaffold) [Bicycle Compound Number 76 (TATA scaffold), (β-Ala)-Sar10-ACPLVNPLCLHPGWTCL(D-His)G]	–	10 nM	75.2 nM	–
XXXXXXXXXXXACPLVNPLCLHPGWSCRGQ (N-terminal (β-Ala)-Sar10; 3 Cys thioether-linked to TATA scaffold) [Bicycle Compound Number 89 (TATA scaffold), (β-Ala)-Sar10-ACPLVNPLCLHPGWSCRGQ]	–	2.86 nM	29.6 nM	–
CPLVNPLCLHPGWTCLHGXXXXXXK (N-terminal acetyl; H17 = D-His; X at 19-24 = Sar; K25 = D-Lys; 3 Cys thioether-linked to TATA scaffold) [Bicycle Compound Number 78 (TATA scaffold), Ac-CPLVNPLCLHPGWTCL(D-His)G-Sar6-(D-K)]	–	15.6 nM	115 nM	–
ACPWGPAWCPVNRPGCAGAAA (linker 2-9-16 via TBMB (inferred), also called Compound 45) [Bicycle Compound Number 45 (TBMB scaffold)]	–	–	–	Ki [7]: 99.2 nM; Ki [8]: 117 nM
ACTSCWAYPDSFCA (linker 2-5-13 via TATA) [Bicycle Compound Number 32 (TATA scaffold), ACTSCWAYPDSFCA]	–	232 nM	–	Ki (Human EphA2 (Ecto) [3]): 151 nM
Ac-[Sar][Sar]A[dD]VTCPWGPAWCPVNRPGC (linker 7-14-21 via TBMB′) [Bicycle Compound 173]	6.69 nM	–	–	Ki (Human EphA2 (Ecto) [9]): 6.69 nM
ACQPSNHCAFMNYCA (linker 2-8-14 via TATA) [Bicycle Compound Number 30 (TATA scaffold), ACQPSNHCAFMNYCA]	–	–	–	Ki (Human EphA2 (Ecto) [3]): 137 nM; Ki (Human EphA2 (Ecto) [4]): 187 nM
ARDCPLVNPLCLHPGWTCAXXXXXXK (N-terminal acetyl; X at 20-25 = Sar (sarcosine); K26 = D-Lys; 3 Cys thioether-linked to TATA scaffold) [Bicycle Compound Number 68 (TATA scaffold), Ac-ARDCPLVNPLCLHPGWTCA-Sar6-(D-K)]	–	19.3 nM	166 nM	–
[Sar][Sar]ACPWGPFWCPVNRAGC (linker 4-11-18 via TBMB) [Bicycle Compound 104]	124 nM	–	–	Ki (Human EphA2 (Ecto) [2]): 194 nM
[Sar][Sar]ACPWGPFWCPVNRPAC (linker 4-11-18 via TBMB) [Bicycle Compound 111]	108 nM	–	–	Ki (Human EphA2 (Ecto) [2]): 238 nM
CPLVNPLCLHPGWSCRGQXXXXXXK (N-terminal acetyl; X at 19-24 = Sar; K25 = D-Lys; 3 Cys thioether-linked to TATA scaffold) [Bicycle Compound Number 91 (BCY6042) (TATA scaffold), Ac-CPLVNPLCLHPGWSCRGQ-Sar6-(D-K)]	–	5.98 nM	49.9 nM	–
[Sar][Sar]ACPWGPFWCPVN[dA]PGC (linker 4-11-18 via TBMB) [Bicycle Compound 302]	> 1000 nM	–	–	Ki (Human EphA2 (Ecto) [2]): 1410 nM
CPLVNPLCLHPGWTCLHGXXXXXXK (N-terminal acetyl; X at 19-24 = Sar; K25 = D-Lys; 3 Cys thioether-linked to TATA scaffold) [Bicycle Compound Number 77 (BCY6019) (TATA scaffold), Ac-CPLVNPLCLHPGWTCLHG-Sar6-(D-K)]	–	5.41 nM	48.2 nM	–
CPLVNPLCLHPGWSCXGQXXXXXXK (N-terminal acetyl; X16 = HArg (homoarginine); X at 19-24 = Sar; K25 = D-Lys; 3 Cys thioether-linked to TATA scaffold) [Bicycle Compound Number 92 (TATA scaffold), Ac-CPLVNPLCLHPGWSC(HArg)GQ-Sar6-(D-K)]	–	10.6 nM	75.3 nM	–
GXXXXXXXXXXACPWGPAWCPVNRPGCA (N-terminal AF488 (AlexaFluor488); Sar10; 3 Cys thioether-linked to TBMB scaffold) [Bicycle Compound Number 14 (TBMB scaffold)]	–	–	–	Kd [6]: 38 nM
[Sar][Sar]ACPWGPFWCPV[dA]RPGC (linker 4-11-18 via TBMB) [Bicycle Compound 102]	317 nM	–	–	Ki (Human EphA2 (Ecto) [2]): 312 nM
